Laboratory results taken from patent US20060292117A1.

Molecular target: serpin enzyme complex receptor (secR) on IB3 cells
Test: cell-based or functional assay

Question: With “VP1 serpin virus (AAV2 capsid with serpin ligand FVFLI substituted for the capsid sequence immediately after aa 34) (from UniProt P03135 1-34; P03135 40-735; P03135 138-735; P03135 203-735)” as the substance, how does the infectivity on IB3 cells (hAAT ELISA) against wt capsid read?
Answer: The infectivity on IB3 cells (hAAT ELISA) against wt capsid was 62 fold.
